Assay results taken from US8088387B2, “Method of targeting specific cell populations using cell-binding agent maytansinoid conjugates linked via a non-cleavable linker, said conjugates, and methods of making said conjugates” (Immunogen Inc., priority 2003, dated 2012).

Key:
[1] = test system: P388 lymphocytic leukemia system; details: in vivo; cited from earlier work
[2] = test system: P388 murine leukemic cell suspension; details: in vitro; most sensitive line; cited from earlier work
[3] = test system: human nasopharyngeal carcinoma cells; details: cited from earlier work
[4] = test system: esterase; assay: esterase cleavage of the C-3 ester; assay type: in vitro ADME
Excerpt: Some linkers can be cleaved by esterases. Again only certain esters can be cleaved by esterases present inside or outside cells. Esters are formed by the condensation of a carboxylic acid and an alcohol. Simple esters are esters produced with simple alcohols, such as aliphatic alcohols, and small cyclic and small aromatic alcohols.

[5] = test system: LY5178 murine leukemic cell suspension; details: in vitro; cited from earlier work
[6] = test system: L1210 murine leukemic cell suspension; details: in vitro; cited from earlier work
[7] = test system: Lewis lung carcinoma system; details: cited from earlier work
[8] = test system: human B-16 melanocarcinoma system; details: cited from earlier work
[9] = human, in vivo; cited from earlier work
[10] = test system: L1210 mouse leukemia system; details: cited from earlier work
[11] = test system: L1210 cells; details: treatment of L1210 cells in vivo; cited from earlier work
[12] = test system: human acute lymphoblastic leukemia line C.E.M.; details: cited from earlier work
[13] = acute toxicity test, single intravenous dose; assay type: in vivo, female CD-1 mice
Protocol: Maytansinoid conjugates prepared with non-cleavable linkers such as SMCC show an unexpected increased tolerability in mice compared with conjugates prepared with cleavable disulfide linkers. An acute toxicity test with a single intravenous dose was carried out in female CD-1 mice. A comparison of the tolerability of a huC242-SMCC-DM1 conjugate (non-cleavable) with huC242 conjugates prepared with linkers containing cleavable disulfide bonds was conducted by monitoring the death of mice (FIGS. 12A and B) and signs of toxicity (FIGS. 12C and D) over a series of four escalating doses of each conjugate. The maximum tolerated dose (MTD) for the SMCC-DM1 conjugate was greater than the highest dose tested (150 mg/kg) while the MTD for the disulfide-linked conjugate SPP-DM1 was in the range of 45-90 mg/kg.

[14] = plasma clearance of conjugates; assay type: in vivo; details: plasma, conjugate, FIG. 11
Excerpt: This is in sharp contrast to plasma clearance of conjugates prepared with relatively labile disulfide bonds such as huC242-SPP-DM1. […] The non-cleavable SMCC linkage is therefore much more resistant to maytansinoid-linker cleavage activities present in vivo than the SPP-DM1 conjugate. […] This increased exposure could have substantial impact on drug efficacy in some cases.

[15] = Pharmacokinetic Studies of huC242-SPP-DM1 and huC242-SCC-DM1 conjugates inCD-1 Mice Plasma clearance curves and Pharmacokinetic parameters
Excerpt: Table printed on a drawing sheet, FIG. 11
Title: Pharmacokinetic Studies of huC242-SPP-DM1 and huC242-SCC-DM1 conjugates inCD-1 Mice Plasma clearance curves and Pharmacokinetic parameters
First reader's note: Rows without -DM1 (huC242-SMCC, huC242-SPP) appear to be the antibody component of the same conjugates, as in the plot legend; study in CD-1 mice.

[16] = test system: Namalwa cells; assay: cell destroying activity, antigen-negative cells (bystander study); assay type: cell-based
Excerpt: (§1) An additional aspect of conjugates prepared with non-cleavable linkers compared to conjugates that have cleavable disulfide linkers is the absence of activity toward antigen-negative cells when in close proximity to antigen-positive cells, termed here the bystander effect. That is, the conjugates prepared with non-cleavable linkers have minimal bystander activity. […] This minimal bystander activity of the non-cleavable conjugate, as measured in this in vitro assay, may contribute to the increased tolerability of conjugate with non-cleavable linkers observed in acute toxicity studies.

[17] = test system: COLO 205 cell line; assay: cell destroying activity, antigen-positive cells (bystander study); assay type: cell-based, human; details: COLO 205 cultured separately
Excerpt: as §1

[18] = test system: COLO205 cells; assay: cell cycle arrest by flow cytometry; assay type: cell-based, human; details: 30 hours post-treatment
Protocol: Maytansinoid conjugates are thought to impart their cell destroying activity through the inhibition of microtubule polymerization. This inhibition of microtubule polymerization leads to an arrest of the cell cycle principally at G2/M. The antigen-dependent arrest of cells at G2/M by antibody-maytansinoid conjugates can be monitored by flow cytometry analysis (FIG. 13). Treatment of COLO205 cells with huC242-SPP-DM1 or huC242-SMCC-DM1 conjugate results in a complete G2/M arrest by 6-10 hours. […] The difference in the durability of the activity of these two conjugates is also reflected in percentage of dead cells at the 30 hour time point, as judged by a dye exclusion assay using trypan blue.

[19] = in vitro clonogenic / indirect cytotoxicity assays, cell line not given; assay type: cell-based; details: for cytotoxicity in clonogenic assays in vitro: FIGS. 9, 22, 28
Excerpt: Cell-binding agent maytansinoid conjugates of the invention can be evaluated for their ability to suppress proliferation of various cell lines in vitro. For example, cell lines such as the human colon carcinoma line COLO205, the human melanoma cell line A375, the human myeloid leukemia cell line HL60, the human breast carcinoma line SKBR3, or the human epidermoid carcinoma cell line KB can be used for the assessment of cytotoxicity of these conjugates. Cells to be evaluated can be exposed to the compounds for 24 hours and the surviving fractions of cells measured in direct assays by known methods. (See, e.g. Goldmacher et al., 135 J. Immunol. 3648-3651 (1985), and Goldmacher et al., 102 J. Cell Biol. 1312-1319 (1986).) IC50 values can then be calculated from the results of the assays.

[20] = test system: COLO 205 cells; assay: indirect FACS binding assay on COLO 205 cells; set-up: species or system human; details: higher than free huC242 antibody; COLO 205 cells
Protocol: The inventors carried out binding and cytotoxicity studies on the huC242-non-S-containing non-cleavable linker-DM1 conjugate. First, the binding affinities of huC242 antibody, huC242-SMNP-DM3, and huC242-non-S-containing non-cleavable linker-DM1 to COLO 205 cells were compared. 5×10^3 cells per well were used, with a three hour primary incubation on ice. The huC242-non-S-containing non-cleavable linker-DM1 conjugate had about a two-fold higher apparent dissociation constant than free antibody (see FIG. 23).

For `COc1cc2cc(c1Cl)N(C)C(=O)C[C@H](OC(=O)[C@H](C)N(C)C(C)=O)[C@]1(C)O[C@H]1[C@H](C)[C@@H]1C[C@@](O)(NC(=O)O1)[C@H](OC)/C=C/C=C(\C)C2` [Maytansine], the “dosage range over which tumor growth was inhibited” value [1] is listed as 50- to 100 fold, the inhibitory doses [2] is listed as 10^−3 to 10^−1 μg/ml and the “inhibition of in vitro growth” value [3] is listed as “active inhibitor”. For the same molecule, the “cleavage of the ester at C-3 by esterases” value [4] was “no esterase that cleaved the ester at C-3”, the inhibitory doses [5] was 10^−3 to 10^−1 μg/ml and the inhibitory doses [6] was 10^−3 to 10^−1 μg/ml. The “inhibitory activity in vivo” value [7] was “significant inhibitory activity”, the “inhibitory activity in vivo” value [8] was “significant inhibitory activity” and the “clinical outcome / adverse effects” value [9] was “not favorable due to a number of side effects”. The “inhibitory activity in vivo” value [10] was “significant inhibitory activity”, the “cells accumulating in mitosis” value [11] was 67% and the lowest inhibitory concentration [12] was 10^−7 μg/ml.

B1: huC242-SPP-DM1: huC242 DM1 conjugate with relatively labile cleavable disulfide linker SPP (conjugate, chains of the INN, looked up)
VH: QVQLVQSGAEVKKPGETVKISCKASDYTFTYYGMNWVKQAPGQGLKWMGWIDTTTGEPTYAQKFQGRIAFSLETSASTAYLQIKSLKSEDTATYFCARRGPYNWYFDVWGQGTTVTVSS
VL: DIVMTQSPLSVPVTPGEPVSISCRSSKSLLHSNGNTYLYWFLQRPGQSPQLLIYRMSNLVSGVPDRFSGSGSGTAFTLRISRVEAEDVGVYYCLQHLEYPFTFGPGTKLELK
modifications: DM1 via SPP disulfide linker
For B1, the “time by which lethal toxicity was observed for all mice” value ([13]; at 150 mg/kg, post-treatment) was no more than 96 h, the “survival / lethal toxicity” value ([13]; at 150 mg/kg, single intravenous dose) was “lethal toxicity was observed for all mice” and the “maximum tolerated dose (MTD)” value ([13]; single intravenous dose, female CD-1 mice) was 45 to 90 mg/kg. The half-life for clearance [14] was 40 to 50 h, the “AUC |” value [15] was 9205.7 µg·h/mL and the “CL |” value [15] was 1.1 mL/h/kg. The “Cmax |” value [15] was 191.4 µg/mL, the “Vss |” value [15] was 0.0926 L/kg and the “t1/2 | hour” value [15] was 49.8 h. For the same molecule, the cell destroying activity ([16]; Namalwa cultured separately) was “no activity”, the “bystander cell destroying activity toward Namalwa cells” value ([16]; co-cultures of COLO 205 and Namalwa cells) was “dramatic cell destroying activity” and the cell destroying activity [17] was “potent cell destroying activity”. For the same molecule, the “durability of cell cycle arrest” value [18] was “escape from cell cycle arrest and reinitiate cell division”.

B2: huC242-SIAB-DM1: huC242 conjugate of DM1 synthesized with the non-cleavable linker SIAB (conjugate, chains of the INN, looked up)
VH: QVQLVQSGAEVKKPGETVKISCKASDYTFTYYGMNWVKQAPGQGLKWMGWIDTTTGEPTYAQKFQGRIAFSLETSASTAYLQIKSLKSEDTATYFCARRGPYNWYFDVWGQGTTVTVSS
VL: DIVMTQSPLSVPVTPGEPVSISCRSSKSLLHSNGNTYLYWFLQRPGQSPQLLIYRMSNLVSGVPDRFSGSGSGTAFTLRISRVEAEDVGVYYCLQHLEYPFTFGPGTKLELK
modifications: DM1 via SIAB linker
In the case of B2, the “cytotoxicity in clonogenic assays in vitro” value [19] is reported as “potent and antigen-specific cytotoxicity”.

B3: huC242-non-S-containing non-cleavable linker-DM1: huC242 conjugated with a maytansinoid active ester forming a non-sulfur-containing non-cleavable linker (conjugate, chains of the INN, looked up)
VH: QVQLVQSGAEVKKPGETVKISCKASDYTFTYYGMNWVKQAPGQGLKWMGWIDTTTGEPTYAQKFQGRIAFSLETSASTAYLQIKSLKSEDTATYFCARRGPYNWYFDVWGQGTTVTVSS
VL: DIVMTQSPLSVPVTPGEPVSISCRSSKSLLHSNGNTYLYWFLQRPGQSPQLLIYRMSNLVSGVPDRFSGSGSGTAFTLRISRVEAEDVGVYYCLQHLEYPFTFGPGTKLELK
modifications: DM1 via non-sulfur non-cleavable linker
In the case of B3, the “apparent dissociation constant relative to free antibody” value [20] is reported as “two”, the “in vitro cytotoxicity compared with huC242-SMNP-DM3” value ([19]; FIG. 22) is reported as “comparable to huC242-SMNP-DM3” and the “cytotoxicity in clonogenic assays in vitro” value [19] is reported as “potent and antigen-specific cytotoxicity”. The IC50 ([19]; in vitro cytotoxicity, FIG. 22) was 7 pM.
